Reference: patent US20230407373A1 (priority 2020, published 2023)
Like-named read-outs stand apart in the source and are kept apart here.

Tests used:
Assay type in all cases: binding
SARS-CoV-2 gRNA = details: […]; LC-MS/MS; Probe I sample (first 199 lines of Table 2)
HCoV-OC43 gRNA and sgRNA = details: for target (unweighted spectral count, OC43 Probe II capture) / target (unweighted spectral count): tested against no-probe control; for target (unweighted spectral count, OC43 Probe II capture): FDR<10%; for target (unweighted spectral count, OC43 Probe II) / background (unweighted spectral count, no-probe control): type n_48_v, 48 hpi; for target (unweighted spectral count, OC43 Probe II): OC43 Probe II capture on infected cells; for background (unweighted spectral count, no-probe control): no-probe control on infected cells; for target (spectral count) / background (spectral count): type s_36_m, Probe II; for target (spectral count): HCoV-OC43-infected HCT-8 cells; for background (spectral count): uninfected-probe control; for target (unweighted spectral count): OC43 Probe II, infected cells
gRNA of HCoV-OC43 = details: for target (spectral count, OC43 Probe I RNP capture) / background (spectral count, no-probe control): type n_48_v: 48 hours post-infection; for target (spectral count, OC43 Probe I RNP capture): infected cells, unweighted spectral count; for background (spectral count, no-probe control): no-probe control on infected cells

Row | Molecule | target (unweighted spectral count of the protein in the RNP capture) (SARS-CoV-2 gRNA) | target (unweighted spectral count, OC43 Probe II capture) (HCoV-OC43 gRNA and sgRNA; 36 hpi, type n_36_v) | target (unweighted spectral count, OC43 Probe II) (HCoV-OC43 gRNA and sgRNA) | background (unweighted spectral count, no-probe control) (HCoV-OC43 gRNA and sgRNA) | target (spectral count) (HCoV-OC43 gRNA and sgRNA; 36 hpi) | background (spectral count) (HCoV-OC43 gRNA and sgRNA; 36 hpi) | target (spectral count, OC43 Probe I RNP capture) (gRNA of HCoV-OC43) | background (spectral count, no-probe control) (gRNA of HCoV-OC43) | target (unweighted spectral count, OC43 Probe II capture) (HCoV-OC43 gRNA and sgRNA; 24 hpi, type n_24_v) | target (spectral count) (gRNA of HCoV-OC43; type g_36_m, HCoV-OC43-infected HCT-8 cells, 36 hpi, Probe I) | background (spectral count) (gRNA of HCoV-OC43; type g_36_m, uninfected-probe control, 36 hpi, Probe I) | target (unweighted spectral count) (HCoV-OC43 gRNA and sgRNA; 12 hpi (type n_12_v)) | target (unweighted spectral count) (HCoV-OC43 gRNA and sgRNA; 24 hpi (type n_24_v))
1 | PUF60: host protein, UniProt Q9UHX1 (protein, UniProt Q9UHX1 1-559, looked up) Poly(U)-binding-splicing …: MATATIALQVNGQQGGGSEPAAAAAVVAAGDKWKPPQGTDSIKMENGQSTAAKLGLPPLTPEQQEALQKAKKYAMEQSIKSVLVKQTIAHQQQQLTNLQMAAVTMGFGDPLSPLQSMAAQRQRALAIMCRVYVGSIYYELGEDTIRQAFAPFGPIKSIDMSWDSVTMKHKGFAFVEYEVPEAAQLALEQMNSVMLGGRNIKVGRPSNIGQAQPIIDQLAEEARAFNRIYVASVHQDLSDDDIKSVFEAFGKIKSCTLARDPTTGKHKGYGFIEYEKAQSSQDAVSSMNLFDLGGQYLRVGKAVTPPMPLLTPATPGGLPPAAAVAAAAATAKITAQEAVAGAAVLGTLGTPGLVSPALTLAQPLGTLPQAVMAAQAPGVITGVTPARPPIPVTIPSVGVVNPILASPPTLGLLEPKKEKEEEELFPESERPEMLSEQEHMSISGSSARHMVMQKLLRKQESTVMVLRNMVDPKDIDDDLEGEVTEECGKFGAVNRVIIYQEKQGEEEDAEIIVKIFVEFSIASETHKAIQALNGRWFAGRKVVAEVYDQERFDNSDLSA | 7 | 7 | 7 | 1 | 7 | 1 | 9 | 1 | – | – | – | – | –
2 | FBL: host protein, UniProt P22087 (protein, UniProt P22087 1-321, looked up) rRNA 2'-O-methyltransferase …: MKPGFSPRGGGFGGRGGFGDRGGRGGRGGFGGGRGRGGGFRGRGRGGGGGGGGGGGGGRGGGGFHSGGNRGRGRGGKRGNQSGKNVMVEPHRHEGVFICRGKEDALVTKNLVPGESVYGEKRVSISEGDDKIEYRAWNPFRSKLAAAILGGVDQIHIKPGAKVLYLGAASGTTVSHVSDIVGPDGLVYAVEFSHRSGRDLINLAKKRTNIIPVIEDARHPHKYRMLIAMVDVIFADVAQPDQTRIVALNAHTFLRNGGHFVISIKANCIDSTASAEAVFASEVKKMQQENMKPQEQLTLEPYERDHAVVVGVYRPPPKVKN | 5 | 11 | – | – | 11 | 1 | 9 | 2 | 4 | 10 | 1 | – | –
3 | RBMX (protein, UniProt P38159 1-391, looked up) RNA-binding motif protein, X …: MVEADRPGKLFIGGLNTETNEKALEAVFGKYGRIVEVLLMKDRETNKSRGFAFVTFESPADAKDAARDMNGKSLDGKAIKVEQATKPSFESGRRGPPPPPRSRGPPRGLRGGRGGSGGTRGPPSRGGHMDDGGYSMNFNMSSSRGPLPVKRGPPPRSGGPPPKRSAPSGPVRSSSGMGGRAPVSRGRDSYGGPPRREPLPSRRDVYLSPRDDGYSTKDSYSSRDYPSSRDTRDYAPPPRDYTYRDYGHSSSRDDYPSRGYSDRDGYGRDRDYSDHPSGGSYRDSYESYGNSRSAPPTRGPPPSYGGSSRYDDYSSSRDGYGGSRDSYSSSRSDLYSSGRDRVGRQERGLPPSMERGYPPPRDSYSSSSRGAPRGGGRGGSRSDRGGGRSRY | 6 | 12 | 20 | 1 | – | – | 17 | 1 | – | – | – | 4 | 6
